The source of these data is the supplement of paper PMC7877785.

The nature of this series: self-splicing fitness, log relative to wild type (ln ratio); higher = more splicing; Tetrahymena group I intron in knt gene, E. coli kanamycin selection, DiMSum; sequences stand for … in CUCUCU…GGAGGGAAAAGUUAUCAGGCAUGCACCUGGUAGCUAGUCUUUAAACCAAUAGAUUGCAUCGGUUUAAAAGGCAAGACCGUCAAAUUGCGGGAAAGGGGUCAACAGCCGUUCAGUACCAAGUCUCAGGGGAAACUUUGAGAUGGCCUUGCAAAGGGUAUGGUAAUAAGCUGACGGACAUGGUCCUAACCACGCAGCCAAGUCCUAAGUCAACAGAUCUUCUGUUGAUAUGGAUGCAGUUCACAGACUAAAUGUCGGUCGGGGAAGAUGUAUUCUUCUCAUAAGAUAUAGUCGGACCUCUCCUUAAUGGGAGCUAGCGGAUGAAGUGAUGCAACACUGGAGCCGCUGGGAACUAAUUUGUAUGCGAAAGUAUAUUGAUUAGUUUUGGAGUACUCGUGGUCG
In a few lines:
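Library with all eight P1ex-region intron nucleotides randomised, intron inside the knt kanamycin-resistance gene on pET-22b(+), in E. coli BL21(DE3). Cells grew overnight at 37°C or 30°C on LB agar with or without 25 μg/mL kanamycin (plus 100 μg/mL carbenicillin, 50 μM IPTG, 0.2% rhamnose), in six replicate transformations. Pooled colonies were amplicon-sequenced on Illumina HiSeq 2500. DiMSum fitness is the error-weighted combination of wild-type-normalised replicate fold changes, kanamycin versus none.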

± gives the uncertainty stated by the source.

On to AGCCAGCAAUAUUACGAGGA, for which the “self-splicing fitness (ln)” value runs as follows: (30 °C) -3.35 ± 0.34; (37 °C) -2.17 ± 0.27.

On to CUAGAGCAAUAUUACGAAAG, for which the “self-splicing fitness (ln)” value (30 °C) is -0.33 ± 0.092 and the “self-splicing fitness (ln)” value (37 °C) was found to be 0.557 ± 0.12.

Take GGCUAGCAAUAUUACGGUUA: the “self-splicing fitness (ln)” value reads like this: (30 °C) 0.156 ± 0.084; (37 °C) 0.606 ± 0.089.

Turning to AUUUAGCAAUAUUACGUCCC, the “self-splicing fitness (ln)” value runs as follows: (30 °C) -0.0323 ± 0.37; (37 °C) -0.682 ± 0.42.

On to UUCGAGCAAUAUUACGUCUU, for which the “self-splicing fitness (ln)” value was -2.89 ± 0.31 (30 °C) and -1.69 ± 0.39 (37 °C).

For the sequence CUCAAGCAAUAUUACGCCAG, the “self-splicing fitness (ln)” value is, setting by setting: (30 °C) -3.03 ± 0.28; (37 °C) -0.675 ± 0.29.

Consider UACAAGCAAUAUUACGCCCC, for which the “self-splicing fitness (ln)” value (30 °C) is -2.04 ± 0.49.

ACUGAGCAAUAUUACGCGCC: under “30 °C”, the “self-splicing fitness (ln)” value was -2.73 ± 0.33.

As for GUGUAGCAAUAUUACGUUAU, the “self-splicing fitness (ln)” value is -2.81 ± 0.16 (30 °C) and -2.41 ± 0.2 (37 °C).

As to GGGCAGCAAUAUUACGUAUU, the “self-splicing fitness (ln)” value reads like this: (30 °C) -0.944 ± 0.061; (37 °C) 0.0363 ± 0.074.

On to AGCGAGCAAUAUUACGGCCU, for which the “self-splicing fitness (ln)” value was -0.967 ± 0.17 (30 °C) and -0.258 ± 0.19 (37 °C).

Take GUCUAGCAAUAUUACGCCCG: the “self-splicing fitness (ln)” value (30 °C) is -0.678 ± 0.27 and the “self-splicing fitness (ln)” value (37 °C) is -0.293 ± 0.34.

In the case of CCGCAGCAAUAUUACGUACU, the “self-splicing fitness (ln)” value was -4.17 ± 0.33 (30 °C) and -3.33 ± 0.4 (37 °C).

As for AGUAAGCAAUAUUACGACCG, the “self-splicing fitness (ln)” value by setting is: (30 °C) -1.03 ± 0.17; (37 °C) -0.428 ± 0.2.

For CGUUAGCAAUAUUACGUGUG, the “self-splicing fitness (ln)” value reads like this: (30 °C) -0.838 ± 0.062; (37 °C) -1.12 ± 0.08.

In the case of GGCUAGCAAUAUUACGUAGC, the “self-splicing fitness (ln)” value is, setting by setting: (30 °C) -4.64 ± 0.42; (37 °C) -2.16 ± 0.43.

For GCUCAGCAAUAUUACGCCCG, under “37 °C”, the “self-splicing fitness (ln)” value was -0.341 ± 0.44.

Turning to GAUUAGCAAUAUUACGUCAG, the “self-splicing fitness (ln)” value is, setting by setting: (30 °C) -3.51 ± 0.35; (37 °C) -4.23 ± 0.46.

As to GUUUAGCAAUAUUACGUUAC, the “self-splicing fitness (ln)” value is -4.44 ± 0.28 (30 °C) and -2.33 ± 0.18 (37 °C).

Regarding UACCAGCAAUAUUACGUUAA, the “self-splicing fitness (ln)” value (30 °C) was -1.36 ± 0.073 and the “self-splicing fitness (ln)” value (37 °C) is -0.903 ± 0.081.

Take UUAGAGCAAUAUUACGUUGA: the “self-splicing fitness (ln)” value by setting is: (30 °C) -2.03 ± 0.1; (37 °C) -0.538 ± 0.12.

Consider GAAGAGCAAUAUUACGAUCA, for which the “self-splicing fitness (ln)” value is, setting by setting: (30 °C) -2.36 ± 0.21; (37 °C) -1.01 ± 0.19.

For the sequence CGCGAGCAAUAUUACGCAGA, the “self-splicing fitness (ln)” value is -1.75 ± 0.22 (30 °C) and -1.77 ± 0.18 (37 °C).

UAAGAGCAAUAUUACGGUAU: the “self-splicing fitness (ln)” value runs as follows: (30 °C) -3.87 ± 0.23; (37 °C) -2.27 ± 0.18.

In the case of AUGCAGCAAUAUUACGUUUA, the “self-splicing fitness (ln)” value is -2.04 ± 0.095 (30 °C) and -1.21 ± 0.089 (37 °C).

Consider ACAUAGCAAUAUUACGCAGG, for which the “self-splicing fitness (ln)” value is -2.73 ± 0.15 (30 °C) and -2.23 ± 0.17 (37 °C).

As for CCAAAGCAAUAUUACGCCGG, the “self-splicing fitness (ln)” value runs as follows: (30 °C) -5.01 ± 0.41; (37 °C) -2.38 ± 0.2.

GCCGAGCAAUAUUACGGAUG: the “self-splicing fitness (ln)” value was -1.38 ± 0.06 (30 °C) and -0.937 ± 0.072 (37 °C).

Turning to GGUUAGCAAUAUUACGGGAC, the “self-splicing fitness (ln)” value (30 °C) was -3 ± 0.3 and the “self-splicing fitness (ln)” value (37 °C) was -1.44 ± 0.21.

In the case of GACUAGCAAUAUUACGCUCG, the “self-splicing fitness (ln)” value was -1.01 ± 0.14 (30 °C) and -0.0622 ± 0.19 (37 °C).

Consider AUCAAGCAAUAUUACGGAUC, for which the “self-splicing fitness (ln)” value runs as follows: (30 °C) -3.29 ± 0.25; (37 °C) -1.91 ± 0.21.

As for UUACAGCAAUAUUACGGUUA, the “self-splicing fitness (ln)” value reads like this: (30 °C) -0.071 ± 0.058; (37 °C) 0.344 ± 0.07.

Turning to AGACAGCAAUAUUACGAAAC, the “self-splicing fitness (ln)” value reads like this: (30 °C) -3.76 ± 0.27; (37 °C) -2.66 ± 0.34.

As to AGACAGCAAUAUUACGAAUC, the “self-splicing fitness (ln)” value (37 °C) was -3.41 ± 0.47.

In the case of AAAGAGCAAUAUUACGGCUG, the “self-splicing fitness (ln)” value was -2.36 ± 0.1 (30 °C) and -1.12 ± 0.12 (37 °C).

For CUAUAGCAAUAUUACGACAG, the “self-splicing fitness (ln)” value was determined as 0.0925 ± 0.097 (30 °C) and 0.0869 ± 0.11 (37 °C).

As for CUCCAGCAAUAUUACGCCGA, the “self-splicing fitness (ln)” value (30 °C) is -2.27 ± 0.42.

As to CGCGAGCAAUAUUACGCGGA, the “self-splicing fitness (ln)” value runs as follows: (30 °C) -2.15 ± 0.22; (37 °C) -2.71 ± 0.31.

Consider GACUAGCAAUAUUACGUACC, for which the “self-splicing fitness (ln)” value (30 °C) is -1.65 ± 0.15 and the “self-splicing fitness (ln)” value (37 °C) is -0.961 ± 0.14.
